# Assay results published in patent US8080523.
# Read-outs that look alike come from different tables or passages of the source.
# What was measured:
# [1] = molecular target: Kv1.1 (Mus musculus (Mouse)) (UniProt P16388); test: patch-clamp, ratio of Kd values; reference ShK(L6) on Kv1.3
# Kv1.3 (cloned) [2] = molecular target: Kv1.3 (cloned) (UniProt P16390)
# Kv1.3 (cloned) [3] = molecular target: Kv1.3 (cloned) (UniProt P16390); remark: listed apart in the source
# Kv3.2 [4] = test: patch-clamp, block of channel current
# Sequence of Kv3.2 (P22462 whole entry): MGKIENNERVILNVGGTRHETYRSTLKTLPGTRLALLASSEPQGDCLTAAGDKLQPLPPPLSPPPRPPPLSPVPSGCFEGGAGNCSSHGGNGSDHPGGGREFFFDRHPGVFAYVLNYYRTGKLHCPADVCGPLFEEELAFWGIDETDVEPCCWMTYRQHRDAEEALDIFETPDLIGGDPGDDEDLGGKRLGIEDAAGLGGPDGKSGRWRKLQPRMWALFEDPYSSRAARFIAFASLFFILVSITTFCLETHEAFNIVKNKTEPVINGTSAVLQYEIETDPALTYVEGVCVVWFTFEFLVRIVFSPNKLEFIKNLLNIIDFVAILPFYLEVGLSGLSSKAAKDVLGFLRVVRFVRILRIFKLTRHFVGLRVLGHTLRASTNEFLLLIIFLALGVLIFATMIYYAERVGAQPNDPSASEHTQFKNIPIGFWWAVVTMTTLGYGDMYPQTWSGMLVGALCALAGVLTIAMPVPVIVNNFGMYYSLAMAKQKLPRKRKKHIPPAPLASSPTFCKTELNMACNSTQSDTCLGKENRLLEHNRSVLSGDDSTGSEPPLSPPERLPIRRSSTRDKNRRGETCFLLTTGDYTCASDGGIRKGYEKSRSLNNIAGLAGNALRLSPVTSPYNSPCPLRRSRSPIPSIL
# Kv1.2 [5] = test: patch-clamp, block of channel current
# Sequence of Kv1.2 (P63142 whole entry): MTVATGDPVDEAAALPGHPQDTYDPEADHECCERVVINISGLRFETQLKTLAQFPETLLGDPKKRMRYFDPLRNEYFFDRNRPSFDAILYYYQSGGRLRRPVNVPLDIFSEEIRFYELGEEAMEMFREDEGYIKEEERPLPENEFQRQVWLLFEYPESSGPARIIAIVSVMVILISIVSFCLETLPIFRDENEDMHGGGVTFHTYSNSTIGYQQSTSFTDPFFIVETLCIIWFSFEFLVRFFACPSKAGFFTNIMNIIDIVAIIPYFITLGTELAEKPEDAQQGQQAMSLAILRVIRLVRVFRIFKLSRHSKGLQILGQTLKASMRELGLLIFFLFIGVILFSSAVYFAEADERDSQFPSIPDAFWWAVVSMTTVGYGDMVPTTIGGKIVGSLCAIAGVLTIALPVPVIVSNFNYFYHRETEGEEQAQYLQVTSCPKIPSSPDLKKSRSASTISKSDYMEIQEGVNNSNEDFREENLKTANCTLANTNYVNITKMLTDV
# Kv1.6 [6] = test: patch-clamp, block of channel current
# Sequence of Kv1.6 (P17658 whole entry): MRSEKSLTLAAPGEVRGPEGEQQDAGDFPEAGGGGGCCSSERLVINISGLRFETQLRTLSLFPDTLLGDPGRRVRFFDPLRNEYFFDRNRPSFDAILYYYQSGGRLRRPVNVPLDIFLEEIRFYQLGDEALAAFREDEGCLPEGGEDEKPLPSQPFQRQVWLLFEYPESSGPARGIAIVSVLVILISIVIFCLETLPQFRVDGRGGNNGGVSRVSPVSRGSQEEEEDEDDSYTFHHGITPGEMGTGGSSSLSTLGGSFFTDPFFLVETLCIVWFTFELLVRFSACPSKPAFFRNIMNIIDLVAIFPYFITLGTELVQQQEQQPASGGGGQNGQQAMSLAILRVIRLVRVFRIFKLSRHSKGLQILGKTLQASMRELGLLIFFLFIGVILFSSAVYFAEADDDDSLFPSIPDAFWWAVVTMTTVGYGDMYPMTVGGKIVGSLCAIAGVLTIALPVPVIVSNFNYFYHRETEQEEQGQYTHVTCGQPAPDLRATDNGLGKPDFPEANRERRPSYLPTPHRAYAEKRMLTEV
# Kv1.1 = Kv1.1 (UniProt P16388)
# Sequence of Kv1.1 (P16388 whole entry): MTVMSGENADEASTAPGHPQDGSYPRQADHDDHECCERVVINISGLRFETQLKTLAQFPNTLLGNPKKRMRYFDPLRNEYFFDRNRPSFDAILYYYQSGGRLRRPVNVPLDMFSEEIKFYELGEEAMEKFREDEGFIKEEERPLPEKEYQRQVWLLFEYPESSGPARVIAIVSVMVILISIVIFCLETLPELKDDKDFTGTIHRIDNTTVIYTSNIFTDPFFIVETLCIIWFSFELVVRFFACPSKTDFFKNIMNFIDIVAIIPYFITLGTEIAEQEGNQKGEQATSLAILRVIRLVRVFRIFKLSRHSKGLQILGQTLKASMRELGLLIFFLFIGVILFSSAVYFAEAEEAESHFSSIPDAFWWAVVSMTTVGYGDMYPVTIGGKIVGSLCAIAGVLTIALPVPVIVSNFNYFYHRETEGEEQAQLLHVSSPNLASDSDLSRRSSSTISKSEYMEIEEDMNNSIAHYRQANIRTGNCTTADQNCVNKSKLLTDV
# Kv3.2 [7] = test: patch-clamp, ratio of Kd values; reference margatoxin on Kv1.3
# Kv1.2 [8] = test: as above
# Kv1.6 [9] = test: as above
# Sequence of Kv1.1 (Mus musculus (Mouse)) (P16388 whole entry): as above
substance,measurement,setting,value
ShK(L6) (peptide),fold selectivity for Kv1.3 over this channel,[1],11 fold
ShK(D5),Kd,Kv1.3 (cloned) [2],1.1 nM
ShK(L6),Kd,Kv1.3 (cloned) [3],0.01 nM
ShK toxin (peptide),Kd,Kv3.2 [4],5 nM
same,Kd,Kv1.2 [5],10 nM
same,Kd,Kv1.6 [6],0.2 nM
ShK-F6CA,Kd,Kv1.1,4 nM
Margatoxin (from UniProt P40755 1-39) (peptide),fold selectivity for Kv1.3 over this channel,Kv3.2 [7],> 1000 fold
same,fold selectivity for Kv1.3 over this channel,Kv1.2 [8],5 fold
same,fold selectivity for Kv1.3 over this channel,Kv1.6 [9],> 1000 fold
same,Kd,Kv3.2 [4],> 100 nM
same,Kd,Kv1.2 [5],0.52 nM
same,Kd,Kv1.6 [6],> 100 nM
